Data published in patent US10568950B1, “Peptides, combination of peptides and scaffolds for use in immunotherapeutic treatment of various cancers” (Immatics Biotechnologies GmbH, priority 2015, dated 2020).

The substances below were run against HLA-A*02 (Homo sapiens, UniProt P04439, D140Y/D185E/D98H/E176V/E277Q/G131W/G231S/I119V/I121R/I166T/I218V/N151K/N90K/P208A/P217A/Q86G/Q94H/R138H/R169H) (assay: MHC binding assay: UV-ligand exchange, beta2m ELISA (peptide exchange yield)). Details: binding to HLA-A*02, β2m ELISA.
From the text: (§1) Candidate peptides for T cell based therapies according to the present invention were further tested for their MHC binding capacity (affinity). The individual peptide-MHC complexes were produced by UV-ligand exchange, where a UV-sensitive peptide is cleaved upon UV-irradiation, and exchanged with the peptide of interest as analyzed. Only peptide candidates that can effectively bind and stabilize the peptide-receptive MHC molecules prevent dissociation of the MHC complexes. To determine the yield of the exchange reaction, an ELISA was performed based on the detection of the light chain (β2m) of stabilized MHC complexes. The assay was performed as generally described in Rodenko et al. (Rodenko et al., 2006).
(§2) 96 well MAXISorp plates (NUNC) were coated over night with 2 ug/ml streptavidin in PBS at room temperature, washed 4× and blocked for 1 h at 37° C. in 2% BSA containing blocking buffer. […] Peptide-MHC monomers of the UV-exchange reaction were diluted 100 fold in blocking buffer. Samples were incubated for 1 h at 37° C., washed four times, incubated with 2 ug/ml HRP conjugated anti-βm for 1 h at 37° C., washed again and detected with TMB solution that is stopped with […]. Absorption was measured at 450 nm. Candidate peptides that show a high exchange yield (preferably higher than 50%, most preferred higher than 75%) are generally preferred for a generation and production of antibodies or fragments thereof, and/or T cell receptors or fragments thereof, as they show sufficient avidity to the MHC molecules and prevent dissociation of the MHC complexes.

| Peptide exchange (MHC class I binding score, peptide exchange yield) | Substance |
| --- | --- |
| +++ (50%-75% = +++) | 75 (ILDNVKNLL; listed as Homo sapiens) [compound 75] |
| +++ (50%-75% = +++) | 76 (ILLDESNFNHFL; listed as Homo sapiens) [compound 76] |
| +++ (50%-75% = +++) | 77 (IVLSTIASV; listed as Homo sapiens) [compound 77] |
| +++ (50%-75% = +++) | 78 (LLWGHPRVA; listed as Homo sapiens) [compound 78] |
| ++++ (>= 75% = ++++) | 79 (SLVPLQILL; listed as Homo sapiens) [compound 79] |
| +++ (50%-75% = +++) | 80 (TLDEYLTYL; listed as Homo sapiens) [compound 80] |
| ++ (20%-49% = ++) | 81 (VLFLGKLLV; listed as Homo sapiens) [compound 81] |
| ++ (20%-49% = ++) | 82 (VLLRVLIL; listed as Homo sapiens) [compound 82] |
| +++ (50%-75% = +++) | 83 (ELLEYLPQL; listed as Homo sapiens) [compound 83] |
| +++ (50%-75% = +++) | 84 (FLEEEITRV; listed as Homo sapiens) [compound 84] |
| +++ (50%-75% = +++) | 85 (STLDGSLHAV; listed as Homo sapiens) [compound 85] |
| +++ (50%-75% = +++) | 87 (YLTEVFLHVV; listed as Homo sapiens) [compound 87] |
| +++ (50%-75% = +++) | 88 (ILLNTEDLASL; listed as Homo sapiens) [compound 88] |
| +++ (50%-75% = +++) | 89 (YLVAHNLLL; listed as Homo sapiens) [compound 89] |
| + (<20% = +) | 90 (GAVAEEVLSSI; listed as Homo sapiens) [compound 90] |
| + (<20% = +) | 91 (SSLEPQIQPV; listed as Homo sapiens) [compound 91] |
| ++ (20%-49% = ++) | 92 (LLRGPPVARA; listed as Homo sapiens) [compound 92] |
| +++ (50%-75% = +++) | 93 (SLLTQPIFL; listed as Homo sapiens) [compound 93] |

| Peptide exchange (MHC class I binding score, peptide exchange yield) | Substance |
| --- | --- |
| +++ (50%-75% = +++) | 321 (SLWFKPEEL; listed as Homo sapiens) [compound 321] |
| +++ (50%-75% = +++) | 323 (ILSVVNSQL; listed as Homo sapiens) [compound 323] |
| ++++ (>= 75% = ++++) | 324 (AIFDFCPSV; listed as Homo sapiens) [compound 324] |
| ++ (20%-49% = ++) | 325 (RLLPKVQEV; listed as Homo sapiens) [compound 325] |
| +++ (50%-75% = +++) | 326 (SLLPLVWKI; listed as Homo sapiens) [compound 326] |
| +++ (50%-75% = +++) | 327 (SIGDIFLKY; listed as Homo sapiens) [compound 327] |
| ++ (20%-49% = ++) | 328 (SVDSAPAAV; listed as Homo sapiens) [compound 328] |
| ++ (20%-49% = ++) | 329 (FAWEPSFRDQV; listed as Homo sapiens) [compound 329] |
| +++ (50%-75% = +++) | 330 (FLWPKEVEL; listed as Homo sapiens) [compound 330] |
| +++ (50%-75% = +++) | 333 (GTFLEGVAK; listed as Homo sapiens) [compound 333] |
| +++ (50%-75% = +++) | 334 (GRADALRVL; listed as Homo sapiens) [compound 334] |
| ++ (20%-49% = ++) | 335 (VLLAAGPSAA; listed as Homo sapiens) [compound 335] |
| ++ (20%-49% = ++) | 336 (GLMDGSPHFL; listed as Homo sapiens) [compound 336] |
| +++ (50%-75% = +++) | 337 (KVLGKIEKV; listed as Homo sapiens) [compound 337] |
| ++ (20%-49% = ++) | 338 (LLYDGKLSSA; listed as Homo sapiens) [compound 338] |
| ++ (20%-49% = ++) | 339 (VLGPGPPPL; listed as Homo sapiens) [compound 339] |
| ++ (20%-49% = ++) | 340 (SVAKTILKR; listed as Homo sapiens) [compound 340] |

What follows are substances tested on HLA-A*24 in the same assay as above. Details: binding to HLA-A*24, β2m ELISA.
Design: species or system human
From the text: as §1, §2

| Peptide exchange (MHC class I binding score, peptide exchange yield) | Substance |
| --- | --- |
| ++++ (>= 75% = ++++) | 97 (TYTFLKETF; listed as Homo sapiens) [compound 97] |
| ++++ (>= 75% = ++++) | 116 (AYVIAVHLF; listed as Homo sapiens) [compound 116] |
| ++++ (>= 75% = ++++) | 128 (VYPFDWQYI; listed as Homo sapiens) [compound 128] |
| ++++ (>= 75% = ++++) | 129 (KYIDYLMTW; listed as Homo sapiens) [compound 129] |
| ++++ (>= 75% = ++++) | 135 (VYEAMVPLF; listed as Homo sapiens) [compound 135] |
| ++++ (>= 75% = ++++) | 148 (SYGTVSQIF; listed as Homo sapiens) [compound 148] |
| ++++ (>= 75% = ++++) | 149 (SYGTVSQI; listed as Homo sapiens) [compound 149] |
| ++++ (>= 75% = ++++) | 153 (VYVPFGGKSMITF; listed as Homo sapiens) [compound 153] |
| ++++ (>= 75% = ++++) | 154 (VYGVPTPHF; listed as Homo sapiens) [compound 154] |
| ++++ (>= 75% = ++++) | 173 (QYLEKYYNL; listed as Homo sapiens) [compound 173] |
| ++++ (>= 75% = ++++) | 184 (IYSVGAFENF; listed as Homo sapiens) [compound 184] |
| ++++ (>= 75% = ++++) | 185 (QYLVHVNDL; listed as Homo sapiens) [compound 185] |
| ++++ (>= 75% = ++++) | 187 (AYAANVHYL; listed as Homo sapiens) [compound 187] |
| ++++ (>= 75% = ++++) | 196 (GYIRGSWQF; listed as Homo sapiens) [compound 196] |
| ++++ (>= 75% = ++++) | 197 (IFTDIFHYL; listed as Homo sapiens) [compound 197] |
| ++++ (>= 75% = ++++) | 206 (NYLDVATFL; listed as Homo sapiens) [compound 206] |
| ++++ (>= 75% = ++++) | 208 (TYLEKIDGF; listed as Homo sapiens) [compound 208] |
| ++++ (>= 75% = ++++) | 209 (AFIETPIPLF; listed as Homo sapiens) [compound 209] |
| ++++ (>= 75% = ++++) | 210 (IYAGVGEFSF; listed as Homo sapiens) [compound 210] |
| ++++ (>= 75% = ++++) | 211 (VFKSEGAYF; listed as Homo sapiens) [compound 211] |
| ++++ (>= 75% = ++++) | 217 (IYISNSIYF; listed as Homo sapiens) [compound 217] |
| ++++ (>= 75% = ++++) | 220 (SYSEIKDFL; listed as Homo sapiens) [compound 220] |
| ++++ (>= 75% = ++++) | 221 (KYIGNLDLL; listed as Homo sapiens) [compound 221] |
| ++++ (>= 75% = ++++) | 223 (TFITQSPLL; listed as Homo sapiens) [compound 223] |
| ++++ (>= 75% = ++++) | 231 (AFADVSVKF; listed as Homo sapiens) [compound 231] |
| ++++ (>= 75% = ++++) | 248 (AFPTFSVQL; listed as Homo sapiens) [compound 248] |
